For test [1], the target named is Cas7 of the Desulfovibrio vulgaris type I-C Cascade (Desulfovibrio vulgaris). Briefly: native MS; purified type I-C Cascade with its crRNA, about 6 uM, in 100 mM ammonium acetate; positive mode; in-source trapping at -120 and -300 V to release subunits and subcomplexes.
Test [2] has the same target. Briefly: cryo-EM structure; purified type I-C Cascade with its crRNA, 0.3 mg/mL in 20 mM HEPES-NaOH pH 7.5, 100 mM KCl, 1 mM TCEP; graphene oxide grids; 3.1 A (3.13 A) reconstruction.
Test [3] concerns the target Cas8c, large subunit of the Desulfovibrio vulgaris type I-C Cascade (Desulfovibrio vulgaris). The test can be described thus: native MS; purified type I-C Cascade with its crRNA, about 6 uM, in 100 mM ammonium acetate; positive mode; in-source trapping at -120 and -300 V to release subunits and subcomplexes.

Experimental findings from PMC7684278 are described below.

In the case of “Cas7 of the Desulfovibrio vulgaris type I-C Cascade (natural protein)”, the stoichiometry N in test [1] and in test [2] was 7 each time.
“non-canonical small subunit (SSU) Cas11c of the Desulfovibrio vulgaris type I-C Cascade (domain or fragment)”: the stoichiometry N in test [3] was found to be 2.

In general, stoichiometry N refers to the number of molecules, sites or subunits per partner or assembly.
